Experimental findings from patent US20190002506A1 (Dana-Farber, published 2019) are described below.

Numbered stars: 1 amine (or outer) side, 2 acyl side, 3 side chain; on linkers, the order of the positions; unused ones are H or OH. Bridge positions count the residues as written; N and C are the ends. Square brackets hold non-standard residues; d marks the D form. Ends that are not written are not given here. * marks the point of attachment. warhead 3 = D-nipecotic acid acylated with acrylic acid, in place of L21, C=CC(=O)N1CCC[C@@H](C(=O)*)C1; Nip(3R) = O=C([C@@H]1CCCN([*:1])C1)[*:2]; warhead 1 = not defined here; S5 = C=CCCC[C@](C)(N)C(=O)O; Acryloyl = C=CC(=O)*

In experiment [1] the target is T1, BFL-1ΔC C4S/C19S (human, UniProt Q16548 1-153).
T1 construct: range 1-153; Made by site-directed mutagenesis of BFL-1ΔC; also called His-BFL-1ΔC C4S/C19S; C55-only BFL-1; not shown: N-terminal His tag from the pET19b vector
T1 sequence (looked up): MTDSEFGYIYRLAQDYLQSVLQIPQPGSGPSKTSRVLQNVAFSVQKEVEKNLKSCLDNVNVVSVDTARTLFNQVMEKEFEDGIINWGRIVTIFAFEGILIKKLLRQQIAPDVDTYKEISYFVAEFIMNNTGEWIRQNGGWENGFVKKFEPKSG
Kind of experiment: covalent conjugation, 10:1 peptide:protein, reducing denaturing gel, Coomassie. The method, then: Processing for gel electrophoresis and Coomassie staining was performed as above.

Experiment [2] deals with T2, HA-BFL-1ΔC C4S/C19S (human, UniProt Q16548 1-153).
T2 construct: range 1-153; also called expressed HA-BFL-1ΔC C4S/C19S; not shown: HA tag (pCMV plasmid)
T2 sequence (looked up): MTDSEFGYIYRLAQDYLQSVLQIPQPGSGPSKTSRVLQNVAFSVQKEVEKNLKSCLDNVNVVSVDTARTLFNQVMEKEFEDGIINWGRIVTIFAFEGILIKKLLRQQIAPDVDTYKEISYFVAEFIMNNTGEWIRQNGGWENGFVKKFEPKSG
Kind of experiment: 293T lysates, 10 µM biotinylated peptide, anti-HA and anti-biotin western. The method, then:
For lysate experiments, cells were trypsinized 24 hours post-transfection, washed with PBS, and lysed by incubation with 1% CHAPS lysis buffer (150 mM NaCl, 50 mM Tris pH 7.4, 100 mM DTT). Protein concentration of the soluble fraction was measured using a BCA kit according to manufacturer's instructions (Thermo Scientific). […] Samples were then boiled in LDS buffer and subjected to western analysis using 1:1000 dilutions of HA (Sigma-Aldrich, #12CA5) and biotin (Abcam, #53494) antibodies. […] After 24 h, cells were trypsinized, washed with PBS, lysed in 1% CHAPS buffer, and the supernatant collected for protein concentration determination by BCA kit. […] The mixtures were then subjected to HA or FLAG (Sigma-Aldrich, F7425) immunoprecipitation, followed by western analysis using 1:1000 dilutions of HA, FLAG, biotin, and BID (Santa Cruz sc-11423) antibodies. […] Cells were harvested and lysed as above, and incubated overnight with anti-HA agarose beads (Pierce). The beads were washed 3 times with lysis buffer, eluted by boiling in LDS buffer, and subjected to western analysis with HA and biotin antibodies.

For experiment [3], the target named is T3, BFL-1ΔC (aa 1-153) (human, UniProt Q16548 1-153).
T3 construct: also called wild-type BFL-1ΔC; BFL-1 WT
T3 sequence: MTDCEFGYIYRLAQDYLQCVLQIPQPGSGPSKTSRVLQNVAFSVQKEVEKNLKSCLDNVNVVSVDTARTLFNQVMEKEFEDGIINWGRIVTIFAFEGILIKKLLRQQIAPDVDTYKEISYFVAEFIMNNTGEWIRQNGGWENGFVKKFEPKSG
The experiment can be described thus: covalent conjugation with BFL-1 cysteine mutants, gel shift.

For experiment [4], the target named is T1, BFL-1ΔC C4S/C19S. Kind of experiment: biolayer interferometry (Octet RED384): biotin-PEG-NOXA SAHB on super streptavidin tips, BFL-1ΔC construct in solution. How it is done: (§1) Excess streptavidin was quenched by incubation with 2 μg/mL biocytin. The tips were then washed with kinetics buffer and soaked in a serial dilution of BFL-1ΔC for 10 min to measure association rate, followed by a 15 min incubation in kinetics buffer to measure dissociation rate. Dissociation constants were calculated using Octet Data Analysis version 9.0.
On the technique in general: BLI is a label-free optical method that tracks binding on a fibre tip over time.

Experiment [5] has as its target T4, BFL-1ΔC C4S/C19S/C55S (human, UniProt Q16548 1-153).
T4 construct: range 1-153; Made by site-directed mutagenesis of BFL-1ΔC; also called BFL-1 with no cysteines; not shown: N-terminal His tag from the pET19b vector
T4 sequence (looked up): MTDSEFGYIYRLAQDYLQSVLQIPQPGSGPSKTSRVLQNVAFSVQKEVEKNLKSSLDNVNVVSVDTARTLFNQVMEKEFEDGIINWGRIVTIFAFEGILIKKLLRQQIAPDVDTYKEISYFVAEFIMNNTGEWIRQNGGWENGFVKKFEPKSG
Described as above. The method, then:
as §1

The target in experiment [6] is T3, BFL-1ΔC (aa 1-153). Described as above. How it is done:
as §1

The target in experiment [7] is T5, Bfl-1 (Examples 1-4) (UniProt Q16548 1-153, limits assumed).
T5 construct: also called 9×His-tagged Bfl-1
T5 sequence (looked up): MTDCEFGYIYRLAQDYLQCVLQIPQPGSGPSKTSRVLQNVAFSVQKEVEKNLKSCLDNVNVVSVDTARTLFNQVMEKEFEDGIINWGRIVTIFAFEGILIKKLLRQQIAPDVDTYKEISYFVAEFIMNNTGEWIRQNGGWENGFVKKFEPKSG
Kind of experiment: fluorescence polarization, FITC-labelled SAHB, protein serially diluted from 1 µM. The method, then: (§2) The solution-state equilibrium binding assay was used to determine binding affinities of the stapled peptides to the anti-apoptotic proteins. Proteins were serially diluted from 1 μM, then combined with FITC-labeled SAHB and polarization measured at 5 min on a microplate reader. We then calculated dissociation constants (KD) by nonlinear regression analysis of dose-response curves.
(Fluorescence polarisation rises when a labelled molecule tumbles more slowly, as on binding a larger partner.)

The target in experiment [8] is T6, MCL-1 (Examples 1-4) (UniProt Q07820 170-327, limits assumed).
T6 construct: also called MCL-I
T6 sequence (Q07820 170-327 limits assumed): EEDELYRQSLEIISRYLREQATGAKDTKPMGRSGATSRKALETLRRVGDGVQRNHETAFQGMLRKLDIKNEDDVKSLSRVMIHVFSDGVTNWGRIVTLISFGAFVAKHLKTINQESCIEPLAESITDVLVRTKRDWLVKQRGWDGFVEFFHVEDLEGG
Described as above. The method, then:
as §2

For [(3S)‑1‑acryloylpyrrolidine‑3‑carboxylic acid]IAQELR[S5]IGD[S5]FNAYYARR (staple 8-12, also called BIM SAHBA-WH, warhead 1) [BIM SAHBA bearing warhead 1 (of FIG. 12B)], the binding result in experiment [1] is “binds”.
Still for that read-out and setting: the result for [warhead 1]EVESATQLR[S5]FGD[S5]LNFRQKLL (staple 11-15; reading uncertain, also called NOXA SAHBA-WH, warhead 1) [NOXA SAHBA bearing warhead 1 (of FIG. 12B)] reads “binds”.

B1: NOXA SAHBA-3 (peptide)
peptide: [warhead 3]EVESATQLR[S5]FGD[S5]LNFRQKLL
modifications: staple 11-15; also: biotinylated form carries C-terminal Lys-biotin
notes: also called NOXA SAHBA-WH with warhead 3; biotinylated NOXA SAHBA-3
B1: the binding result in experiment [2], in experiment [3] and in experiment [1] was “binds” in each case.
For the molecule Acryloyl-EVESATQLR[S5]FGD[S5]LNFRQKLL (staple 10-14, also called NOXA SAHBA-WH, warhead 8) [NOXA SAHBA bearing warhead 8 (of FIG. 12B)], in experiment [1], the binding result was “binds”.

B2: BIM SAHBA-3 (peptide)
peptide: [Nip(3R)](Acryloyl)IAQELR[S5]IGD[S5]FNAYYARR
modifications: staple 8-12
notes: also called BIM SAHBA-WH with warhead 3; biotinylated BIM SAHBA-3
On to B2, for which the binding result in experiment [2], in experiment [3] and in experiment [1] was “binds” each time.
In the case of Acryloyl-IAQELR[S5]IGD[S5]FNAYYARR (staple 7-11, also called BIM SAHBA-WH, warhead 8) [BIM SAHBA bearing warhead 8 (of FIG. 12B)], in experiment [1], the binding result is given as “binds”.

B3: NOXA SAHBA (peptide)
peptide: AELEVECATQLR[S5]FGD[S5]LNFRQKLL
modifications: staple 13-17; also: N-terminus PEG-biotin or FITC depending on assay
notes: Stapled NOXA BH3 peptide (aa 19-43) with native C25; also called WT NOXA SAHB; wild-type NOXA SAHBA
As usually defined, the Kd is a measure of binding affinity in units of concentration. Read a low Kd as a tighter complex. As a reminder, the EC50 (read off the curve) is the concentration needed to bring the measured effect to its halfway point. Read a high EC50 (read off the curve) as lower potency in that assay. On to B3, for which the Kd in experiment [4] is 165 nM; in experiment [5], 118 nM; in experiment [6], 122 nM. Besides, the “EC50 (read off the curve)” value in experiment [7] is about 100 nM; in experiment [8] it was about 200 nM.

B4: NOXA SAHBA F32Y (peptide)
peptide: AELEVECATQLR[S5]YGD[S5]LNFRQKLL
modifications: staple 13-17; also: FITC-labelled, site not given here
notes: member of the group m25; also called NOXA SAHB F32 variant with tyrosine
In the case of B4, in experiment [7], the concentration for a half-maximal effect (EC50 (read off the curve)) is about 200 nM. Further, in experiment [8], the binding result is on record as “no binding (tested: 1e-6 M)”.

B5: NOXA SAHBA C25S (peptide)
peptide: AELEVESATQLR[S5]FGD[S5]LNFRQKLL
modifications: staple 13-17; also: N-terminus PEG-biotin or FITC depending on assay
notes: Stapled NOXA BH3 peptide with C25S; also called NOXA C25S SAHB; NOXA C25 SAHB
Consider B5, for which the dissociation constant (Kd) in experiment [4] turned out to be 47.2 nM; in experiment [5], 58.2 nM; in experiment [6], 46.6 nM.
